Experimental findings from patent publication US20250346651A1 (EMORY UNIVERSITY, published 2025) are described below.

B1: 22-E2D4 (antibody, V domains shown)
VH: QVQLVQSGAEVKRPGSSVKVSCKASGDNFNNYAFHWVRQAPGQGLEWMGRTIPFLGLTSYSPNIQGRVSISADKSTATAFMEMSGLRSEDTAMYYCASSIRLGDFLYRASYYYSSPLDVWGQGTTVTVSS
VL: EVVLTQSPGTLSLSPGDRATLTCRAGQTISNSYLAWYQQKPGQAPRLLISGVSSRATGIPDRFSGSGSGTDFTLTISRLEPEDFAVYYCQLYGNSPSFGQGTRLEIK
B2: 22-1B10 (antibody, V domains shown)
VH: QVQLVQSGSELRKPGASVTVSCKASGYTFSNHDMSWVRQAPGQGLEWMGWINSNTGNPTYAQGFTGRFVFSLDTSVSTAYLQISSLKSEDTAVYYCAKGGGICSGSRCYSGWFDSWGKGTLVAVSS
VL: QLVLTQSPSASASLGASVKLTCTLSSGHSGYAIAWHQQQPEKGPRYLMKLNSDGTHTKGDGIPDRFSGSSSGAERYLTISSLQSEDEADYYCQTWGTGIQVFGTGTKVTILG
B3: 22-E2C5 (antibody, V domains shown)
VH: QVQLVQSGAEVKKPGASVKVSCRTSGYSFTRYYIHWVRQSPGRGLEWMGIIDPNNGGTTSAKTLLGKVSMTRDTSTSTAHLELTSLGPEDTAVYYCAILYSNGLEVWDYWGQGTLVTVSS
VL: SHELTQPPSVSVSPGQTAQITCSGDTLPDNYAYWYQQRSGQAPVLVVYEDNKRPSGIPERFSGSSSGTMATLTISGAQVEDDADYYCYSSDRSNNFFGGGTKLTVLS
B4: 22-E2G5 (antibody, V domains shown)
VH: EVQVVESGGGLVQPGGSLRLSCAASGFTVNSKFMTWVRQAPGTGLECVSIIYNDGSTYYADSVKGRFTISRDNSKNTLYLQMNRLRPEDTAVYFCARRAFFGGNDDFDIWGQGTLVTVSS
VL: EIVLTQSPGTLSLSPGDRATLSCRAGQSVSSSFLAWYQQRPGQPPRLLIYGASSRATDIPDRFSGSGSGTDFTLTISRLEPEDFAVYYCHQYSSSLPTFGPGTKVEIK
B5: 22-E2B2 (antibody, V domains shown)
VH: QVQLVQSGTEVKKPGASVRVSCKASGYTFTEYYLHWVRQAPGQGLEWMGRINPNSGNTNYAQKFNGRVTMTSDTSVNLAYLEVSGLTSDDTAIYYCTRDDSGAFVYWGQGTLVTVSS
VL: ETVLTQSPATLSLSPGERATLSCRSSQVISSYLAWFQQKPGQAPRLLIYDTSNRATGIPARFSGSGSGTDFTLTISSLEPEDFAVYYCQQRTNWPPREKITFGPGTKVDIK
B6: 22-E2F7 (antibody, V domains shown)
VH: QVQLVQSGTEVKKPGASVRVSCKASGYSFTEYYLHWVRQAPGQGLEWMGRINPKSGNTNYAQKLNGRVTMTSDTSVNVAYLEVSGLTSDDTAIYYCTRDDNGAFVYWGQGTLVTVSS
VL: ETVLTQSPATLSLSPGERATLSCRSSQVISSYLAWFQQKPGQAPRLLIYDTSNRATGIPARFSGSGSGTDFTLTISSLEPEDFAVYYCQQRINWPPREKITFGPGTKVDIR
B7: 21-1E2 (antibody, V domains shown)
VH: DVQLAESGGGLVQPGDSLTLSCAASGFIFNNYFMSWVRQTPGKGLEWVSGISANGERSIYADSVKGRFTISRDNSKKTVSLQMNSLSAEDTAIYYCARAGCDSTSCYARVGWFGPWGQGILVTVSS
VL: DVVMTQSPDSLAVSLGERATLNCKSRESVLYTTNNRNYLAWYQQKPGQPPKLLIYWASTRESGVPDRFSGSGSGTDFSLTISSLQAEDVAVYYCQQYLTTPPTFGQGTKVEIK
B8: 21-1H3 (antibody, V domains shown)
VH: QVQLVQSGAEVKKPGSSVKVSCKASGGTFANSGVAWVRQAPGQGLEWMGGLIPVFGAADYAQKFRGRLSITADESSTTAFMELDSLRSDDTAVYYCAKDHFTYNKYFSWFDPWGQGTLVIVSS
VL: QTVVTQEPSLSVSPGGTVTLTCALSSGSVSTSYYPSWYQQTPGQAPRTLIYSTNLRSSGVPDRFSGSILGNKAALTITGAQADDECDYYCVLFMGSGISMFGGGTKLTVL

T2 sequence (P03126 whole entry, the tested form may be a part): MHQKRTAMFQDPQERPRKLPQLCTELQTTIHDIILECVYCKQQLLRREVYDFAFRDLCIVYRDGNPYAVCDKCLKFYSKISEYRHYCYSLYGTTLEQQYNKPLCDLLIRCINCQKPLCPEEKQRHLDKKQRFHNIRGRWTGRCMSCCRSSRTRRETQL

The target in the first assay is T1, recombinant MBP-E2 fusion protein (Human papillomavirus type 16, UniProt P03120 1-365, limits assumed).
T1 construct: The legend says only 'MBP-E2'
T1 sequence: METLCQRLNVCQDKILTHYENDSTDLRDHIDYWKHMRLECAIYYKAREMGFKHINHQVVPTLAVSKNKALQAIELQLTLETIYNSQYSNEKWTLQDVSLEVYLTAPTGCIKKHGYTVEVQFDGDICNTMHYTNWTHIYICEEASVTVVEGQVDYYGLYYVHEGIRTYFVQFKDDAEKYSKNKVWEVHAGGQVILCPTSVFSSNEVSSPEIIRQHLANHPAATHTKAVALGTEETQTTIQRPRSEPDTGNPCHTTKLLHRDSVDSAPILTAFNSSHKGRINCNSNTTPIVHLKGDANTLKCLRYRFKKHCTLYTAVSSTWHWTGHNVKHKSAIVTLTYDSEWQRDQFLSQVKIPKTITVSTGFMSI
Put plainly: ELISA, plate coated with MBP-E2, purified antibody. (In general: In an ELISA, binding on a coated surface is turned into a signal by an enzyme label.)
Method: ELISA plates coated with recombinant MBP-E2 fusion protein were incubated with purified human monoclonal antibodies.
For B1, the binding result was “binds”.

Regarding B2, the binding result was “binds”.

Turning to B3, the binding result is reported as “binds”.

On to B4, for which the binding result was “binds”.

As for B5, the binding result was “binds”.

As for B6, the binding result is “binds”.

Another assay concerns the target T2, recombinant MBP-E6 fusion protein (Human papillomavirus type 16, UniProt P03126 1-158).
T2 construct: The legend says only 'MBP-E6'
Nature of the assay: ELISA, plate coated with MBP-E6, purified antibody.
Method: ELISA plates coated with recombinant MBP-E6 fusion protein were incubated with purified human monoclonal antibodies.
Take B7: the binding result is listed as “binds”.

B8: the binding result is given as “binds”.
